B1: A-027 (scFv format) (scFv, V domains shown)
VH: QVQLVQSGAEVKKPGSSVKVSCKASGGTFSSYAISWVRQAPGQGLEWMGGIIPIFGTANYAQKFQGRVTITADKSTSTAYMELSSLRSEDTAVYYCARARGSTWGYFDYWGQGTLVTVSS
VL: EIVLTQSPASLSLSPGERVTLSCRASQSVSNYLAWYQQKPGQAPRLLIYDASNRATGIPARFSGSGSGTDFTLTISSLEPEDFAVYYCQQRDNWPLTFGGGTKVEIK
notes: scFv
B2: C-017 (Fab format) (Fab, V domains shown)
VH: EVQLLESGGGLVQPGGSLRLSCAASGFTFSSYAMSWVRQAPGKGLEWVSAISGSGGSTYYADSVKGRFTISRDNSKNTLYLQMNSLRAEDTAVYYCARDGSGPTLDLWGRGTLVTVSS
VL: DIQMTQSPSSLSASVGDRVTITCRASQSISSYLNWYQQKPGKAPKLLIYAASSLQSGVPSRFSGSGSGTDFTLTISSLQPEDFATYYCQQHRYIPPWTFGQGTKVEIK
notes: Fab from E. coli lysate
B3: A-016 (IgG1 format) (antibody, V domains shown)
VH: QVQLQESGAEVKKPGASVKVSCKASGYTFTGYYMHWVRQAPGQGLEWMGGIIPIFGTANYAQKFQGRVTITADESTSTAYMELSSLRSEDTAVYYCAGAGMELTRSGAYYYYGMDVWGQGTTVTVSS
VL: QSALTQPASVSGSPGQSITISCTGTSSDIGGYTFVSWYQQHPGKAPKVMIHDVNNRPSGISNRFSGSKSGNTASLTISGLQAEDEADYYCSSVTSTNTYVFGTGTKVTVL
notes: human IgG1 format
B4: A-028 (scFv format) (scFv, V domains shown)
VH: QVQLVQSGAEVKKPGSSVKVSCKASGGTFSSYAISWVRQAPGQGLEWMGGIIPIFGTANYAQKFQGRVTITADESTSTAYMELSSLRSEDTAVYYCARVGVEYQLLWYFDYWGQGTLVTVSS
VL: DIQMTQSPSSLSASVGDRVTLTCRTSQTISNYLNWYQQKPGKAPKLLVYAASNLQSWVPSRFSGSGSGTDFTLTISSLQPEDFATYYCQQSYNASFGGGTKVEFK
notes: scFv
B5: A-015 (scFv format) (scFv, V domains shown)
VH: not shown
VL: QPVLTQSPSASASLGASVKLTCTLSSGHTNYAIAWRQQQPGKAPRYLMLLNSDGSHTRGGGIPDRFSGSSSGAERYLTISSLQSEDEADYYCMIWHNNAWVFGGGTKLAVL
notes: scFv
B6: A-029 (scFv format) (scFv, V domains shown)
VH: QVQLVQSGAEVKKPGSSVKVSCKASGGTFSSYAISWVRQAPGQGLEWMGGIIPIFGTANYAQKFQGRVTITADESTGTAYMELSSLRSEDTAVYYCARSYYYYYGMDVWGQGTTVTVSS
VL: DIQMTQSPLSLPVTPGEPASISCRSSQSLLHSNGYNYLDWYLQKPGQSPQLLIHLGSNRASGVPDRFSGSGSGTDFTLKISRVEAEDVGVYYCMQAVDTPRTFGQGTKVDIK
notes: scFv
B7: C-020 (Fab format) (Fab, V domains shown)
VH: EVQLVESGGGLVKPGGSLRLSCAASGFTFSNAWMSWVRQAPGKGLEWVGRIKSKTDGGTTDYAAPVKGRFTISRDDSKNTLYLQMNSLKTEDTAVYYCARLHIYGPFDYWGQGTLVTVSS
VL: SYELTQPPSVSVSPGQTASITCSGDKLGDKYASWYQQKPGQSPVLVIYQDSKRPSGIPERFSGSNSGNTATLTISGTQAEDEADYYCLSYLARSGSVVFGGGTKLTVL
notes: Fab from E. coli lysate
B8: C-024 (Fab format) (Fab, V domains shown)
VH: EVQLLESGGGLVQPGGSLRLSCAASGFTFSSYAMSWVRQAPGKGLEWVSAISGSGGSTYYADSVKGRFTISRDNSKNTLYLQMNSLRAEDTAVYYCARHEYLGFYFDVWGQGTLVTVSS
VL: SYELTQPPSVSVSPGQTASITCSGDKLGDKYASWYQQKPGQSPVLVIYQDSKRPSGIPERFSGSNSGNTATLTISGTQAEDEADYYCLASHRLTLNYVFGGGTKLTVL
notes: Fab from E. coli lysate
B9: C-015 (Fab format) (Fab, V domains shown)
VH: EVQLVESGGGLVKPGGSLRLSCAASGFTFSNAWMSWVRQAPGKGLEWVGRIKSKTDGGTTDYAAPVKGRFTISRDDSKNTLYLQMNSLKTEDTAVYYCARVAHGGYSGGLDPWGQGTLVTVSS
VL: SYELTQPPSVSVSPGQTASITCSGDKLGDKYASWYQQKPGQSPVLVIYQDSKRPSGIPERFSGSNSGNTATLTISGTQAEDEADYYCSSTGTAHTLAVFGGGTKLTVL
notes: Fab from E. coli lysate
B10: C-023 (Fab format) (Fab, V domains shown)
VH: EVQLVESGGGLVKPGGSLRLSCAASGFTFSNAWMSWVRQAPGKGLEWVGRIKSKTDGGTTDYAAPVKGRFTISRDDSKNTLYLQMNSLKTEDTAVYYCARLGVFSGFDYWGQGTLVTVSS
VL: SYELTQPPSVSVSPGQTASITCSGDKLGDKYASWYQQKPGQSPVLVIYQDSKRPSGIPERFSGSNSGNTATLTISGTQAEDEADYYCHTWTHHSLAVVFGGGTKLTVL
notes: Fab from E. coli lysate
B11: A-025 (scFv format) (scFv, V domains shown)
VH: QVQLVQSGAEVKKPGSSVKVSCKASGGTFSSYAISWVRQAPGQGLEWMGGIIPIFGTANYAQKFQGRVTITADESTSTAYMELTSLRSEDTAVYYCARGGWLRQNWFDPWGQGTLVTVSS
VL: SSELTQDPAVSVALGQTVRITCQGDSLRSYYASWYQQKPGQAPVLVIYGKNNRPSGIPDRFSGSSSGNTASLTITGAQAEDEADYYCNSRDSSGNHPRVFGGGTKLTVL
notes: scFv
B12: A-010 (scFv format) (scFv, V domains shown)
VH: QVQLVQSGAEVKKPGASVKVSCKASGYTFTSYGISWVRQAPGQGLEWMGWISAYNGNTNYAQKLQGRVTMTTDTSTSTAYMELRSLRSDDTAVYYCARVPAWSGQFDYWGQGTLVTVSS
VL: QSALTQPASVSGSPGQSITISCTGSSSDVGGYNYVSWYQQYPGKAPKLMIYDVRSRPSGVSNRFSGSKSGNTASLTISGLQAEDEADYYCTSYTSSNTLVIFGGGTKVTVL
notes: scFv
B13: A-001 (IgG1 format) (antibody, V domains shown)
VH: EVQLVESGGGLVKPGGSLRLSCAASGFTFSSYSMNWVRQAPGKGLEWVSSISSSSSYIYYADSVKGRFTISRDNAKNSLYLQMNSLRAEDTAVYYCVRSIIVQALGITSVFDIWGQGTMVTVSS
VL: AIRLTQSPSSLSASVGDRVTISCRASQIISNHLNWYQQKPGKAPKLLIYAASRLQTGVPSRFSGSGSETDYTLTISSLQPEDFATYYCQQSYSNPRTFGHGTKVEIK
notes: human IgG1 format
B14: C-021 (Fab format) (Fab, V domains shown)
VH: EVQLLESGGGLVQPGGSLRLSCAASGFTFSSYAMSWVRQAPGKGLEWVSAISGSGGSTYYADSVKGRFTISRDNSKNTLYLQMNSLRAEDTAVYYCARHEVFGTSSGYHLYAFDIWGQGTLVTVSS
VL: DIQMTQSPSSLSASVGDRVTITCRASQSISSYLNWYQQKPGKAPKLLIYAASSLQSGVPSRFSGSGSGTDFTLTISSLQPEDFATYYCQQWSGLPLTFGQGTKVEIK
notes: Fab from E. coli lysate
B15: A-007 (scFv format) (scFv, V domains shown)
VH: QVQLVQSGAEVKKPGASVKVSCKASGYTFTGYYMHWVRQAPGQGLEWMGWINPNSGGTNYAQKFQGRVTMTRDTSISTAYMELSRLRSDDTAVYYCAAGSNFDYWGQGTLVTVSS
VL: QSALTQPASVSGSPGQSITIACTGSSSDIGSFSYVSWYQQRPGKAPTLIIYGVNNRPLGVSRRFSGSKSGNTASLSISGLQAEDEADYYCSSYTRRSTVIFGGGTKLTVL
notes: scFv
B16: A-006 (scFv format) (scFv, V domains shown)
VH: EVQLVESGGGLIQPGGSLRLSCAASGFTVSSNYMSWVRQAPGKGLEWVSVIYSGGSTYYADSVKGRFTISRDNSKNTLYLQMNSLRAEDTAVYYCARGNPYYYGDLQVNFDYWGQGTLVTVSS
VL: QAVVTQEPSLTVSPGGTVTLTCASSTGAVTSGYYPNWFQQKPGQAPRPLIYSTSNKHSWTPARFSGSLLGGKAALTLSGVQPDDEAEYYCLLYYGGDWVFGGGTKLTVL
notes: scFv
B17: A-012 (scFv format) (scFv, V domains shown)
VH: EVQLLESGGGLIQPGGSLRLSCAVSGFTVSSNYMSWVRQAPGKGLEWVSVIYSGGSTYYADSVKGRFTISRDNSKNTLYLQMNSLRAEDTAVYYCARGNPYYYGDLQVNFDYWGQGTLVTVSS
VL: QAVVTQEPSLTVSPGGTVTLTCASSTGAVTSGYYPNWFQQKPGQAPRALIYSTSNKHSWTPARFSGSLLGGKAALTLSGVQPEDEAEYYCLLYYGGAWVFGGGTKLTVL
notes: scFv
B18: A-013 (scFv format) (scFv, V domains shown)
VH: EVQLVESGGGLIQPGGSLRLSCAASGFTVSSNYMSWVRQAPGKGLEWVSVIYSGGSTYYADSVKGRFTISRDNSKNTLYLQMNSLRAEDTAVYYCARGNPYYYGDLQVNFDYWGQGTLVTVSS
VL: QAVVTQEPSLTVSPGGTVTLTCASSTGAVTSAYYPNWFQQKPGQAPRALIYSTSNKHSWTPARFSGSLLGGKAALTLSGVQPEDEADYYCLLYYGGAWVFGGGTKLTVL
notes: scFv
B19: C-016 (Fab format) (Fab, V domains shown)
VH: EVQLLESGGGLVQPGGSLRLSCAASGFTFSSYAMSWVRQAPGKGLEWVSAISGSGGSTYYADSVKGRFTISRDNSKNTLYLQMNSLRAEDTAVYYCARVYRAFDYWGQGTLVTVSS
VL: ASVLTQPPSVSAAPGQKVTISCSGSSSNIGNNYVSWYQQLPGTAPKLLIYDNNKRPSGIPDRFSGSKSGTSATLGITGLQAEDEADYYCHLYTEAESHWVFGGGTKLTVL
notes: Fab from E. coli lysate
B20: C-002 (Fab format) (Fab, V domains shown)
VH: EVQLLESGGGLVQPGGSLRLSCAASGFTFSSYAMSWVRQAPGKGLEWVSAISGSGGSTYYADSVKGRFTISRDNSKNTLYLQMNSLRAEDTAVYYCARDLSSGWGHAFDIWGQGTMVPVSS
VL: ASVLTQPPSVSAAPGQKVTISCSGSSSNIGNNYVSWYQQLPGTAPKLLIYDNNKRPSGIPDRFSGSKSGTSATLGITGLQAEDEADYYCLSYTTSEHHLVFGGGTKLTVL
notes: Fab from E. coli lysate

Tests used:
[1] = biological target: T1, ECD of murine IGSF11, recombinant biotinylated (mouse, UniProt P0C673 23-240); assay: ELISA RFU 0.1-0.5
T1 construct: whole entry named; also called Mouse IGSF11
T1 sequence: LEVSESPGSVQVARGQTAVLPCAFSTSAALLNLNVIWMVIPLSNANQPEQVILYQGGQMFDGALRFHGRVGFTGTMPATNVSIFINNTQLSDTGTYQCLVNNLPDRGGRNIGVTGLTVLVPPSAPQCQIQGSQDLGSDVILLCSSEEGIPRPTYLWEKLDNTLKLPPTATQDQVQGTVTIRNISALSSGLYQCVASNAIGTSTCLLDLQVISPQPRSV

[2] = biological target: T2, extracellular domain (ECD) of human IGSF11 (VSIG3), recombinant (human, UniProt Q5DX21 23-241); assay: ELISA RFU 0.1-0.5
T2 construct: biotinylated where captured on streptavidin; tags of the reagent not always stated; also called IGSF11 (ECD domain); ECD-IGSF11
T2 sequence: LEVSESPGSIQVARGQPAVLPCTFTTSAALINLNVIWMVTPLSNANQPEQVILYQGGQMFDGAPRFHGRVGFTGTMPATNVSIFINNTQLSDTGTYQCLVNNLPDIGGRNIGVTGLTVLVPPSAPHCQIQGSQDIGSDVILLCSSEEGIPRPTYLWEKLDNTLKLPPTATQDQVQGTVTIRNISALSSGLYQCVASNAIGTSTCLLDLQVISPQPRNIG

[3] = biological target: T1, ECD of murine IGSF11, recombinant …; assay: Fab ELISA
Description: (§1) In order to identify IGSF11-specific binding ABPs, monoclonal Fabs expressed from E. coli were generated from the enriched set of anti-IGFS11 antibody-expressing phage. After bacterial lysis, the Fabs were tested for their binding properties and cross-reactivity profile on recombinant ECD-IGSF11 (human, mouse and cynomolgus monkey) by standard ELISA. Briefly, biotinylated recombinant ECD-IGSF11 from human, mouse, or cynomolgus monkey were immobilized at 2 ug/mL on a streptavidin-coated 384-well Maxisorp plate. The surface was blocked with 2% (w/v) skim milk powder in PBST. After three wash cycles with PBST, a bacterial lysate of each of the anti-IGSF11 Fabs in 2% (w/v) skim milk powder was applied to the immobilized IGSF11 and incubated for 1 h. After removing all unbound Fab by 3 wash cycles with PBST, bound Fab antibodies were detected with a goat anti-human Fab antibody conjugated with horseradish peroxidase. After three wash cycles with PBST the ELISA was developed with TMB substrate.

[4] = biological target: T3, human IGSF11 (VSIG3) ECD, His-tagged (human, UniProt Q5DX21 23-241); assay: IgG1 ELISA EC50 <0.02 nM
T3 construct: in part bought (SinoBiological 13094-H08H); also called HIS-IGSF11; IGSF11-HIS; not shown: His tag
T3 sequence: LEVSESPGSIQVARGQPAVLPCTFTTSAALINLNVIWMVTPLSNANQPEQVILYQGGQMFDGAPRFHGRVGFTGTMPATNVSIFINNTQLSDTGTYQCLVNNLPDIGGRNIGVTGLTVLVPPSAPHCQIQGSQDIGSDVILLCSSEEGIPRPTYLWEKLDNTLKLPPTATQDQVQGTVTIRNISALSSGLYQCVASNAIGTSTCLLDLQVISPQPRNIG

[5] = biological target: T1, ECD of murine IGSF11, recombinant …; assay: ELISA RFU 0.5-1.0
[6] = biological target: T2, extracellular domain (ECD) of human …; assay: ELISA RFU 0.5-1.0
Streptavidin = Streptavidin (UniProt P22629 37-163, limits assumed); assay: Fab ELISA
Sequence of Streptavidin (P22629 37-163 limits assumed): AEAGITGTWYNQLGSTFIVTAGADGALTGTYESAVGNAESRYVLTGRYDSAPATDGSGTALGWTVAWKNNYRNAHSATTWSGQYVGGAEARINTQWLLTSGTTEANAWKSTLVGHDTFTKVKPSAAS
Description: as §1

Binder | A450 [3] | ELISA binding signal (RFU) [5] [rfu] | ELISA binding signal (RFU) [6] [rfu] | also measured
B1 |  |  |  | ELISA binding signal (RFU) [1]: 0.1 to 0.5 rfu; ELISA binding signal (RFU) [2]: 0.1 to 0.5 rfu
B2 | < 1 |  |  | 
B3 |  |  |  | EC50 [4]: < 0.02 nM
B4 |  |  |  | ELISA binding signal (RFU) [1]: 0.1 to 0.5 rfu; ELISA binding signal (RFU) [2]: 0.1 to 0.5 rfu
B5 |  | 0.5 to 1 | 0.5 to 1 | 
B6 |  |  |  | ELISA binding signal (RFU) [1]: 0.1 to 0.5 rfu; ELISA binding signal (RFU) [2]: 0.1 to 0.5 rfu
B7 | < 1 |  |  | 
B8 | < 1 |  |  | 
B9 | < 1 |  |  | A450 (Streptavidin): < 0.1
B10 | < 1 |  |  | A450 (Streptavidin): < 0.1
B11 |  |  |  | ELISA binding signal (RFU) [1]: 0.1 to 0.5 rfu; ELISA binding signal (RFU) [2]: 0.1 to 0.5 rfu
B12 |  | 0.5 to 1 | 0.5 to 1 | 
B13 |  |  |  | EC50 [4]: < 0.02 nM
B14 | < 1 |  |  | A450 (Streptavidin): < 0.1
B15 |  | 0.5 to 1 | 0.5 to 1 | 
B16 |  | 0.5 to 1 | 0.5 to 1 | 
B17 |  | 0.5 to 1 | 0.5 to 1 | 
B18 |  | 0.5 to 1 | 0.5 to 1 | 
B19 | < 1 |  |  | A450 (Streptavidin): < 0.1
B20 | < 1 |  |  | A450 (Streptavidin): < 0.1

— US20220372138A1 (IOMX THERAPEUTICS, published 2022)
